We go through one molecule from patent CN111635459A (BEIJING GUANGWEI BIOTECHNOLOGY CO LTD, dated 2020).

For one assay, the target named is T1, 人CD47抗原蛋白 (human, UniProt Q08722 19-139, limits assumed).
T1 construct: The construct is not described; also called CD47蛋白
Put plainly: SPR (Biacore 3000), antibody captured by anti-human Fc on CM5 chip, CD47 antigen 200-3.125 nM as analyte.

For the next assay, the target named is T2, U937细胞表面的CD47 (human, UniProt Q08722 19-323).
T2 construct: whole, on cells; also called CD47 on U937 cells
The assay is described as follows: flow cytometry on U937 cells, blocking of FITC-SIRPα (100 ng/mL) binding to cell-surface CD47; antibody 0.03-50 μg/mL.

T1 sequence (Q08722 19-139 limits assumed): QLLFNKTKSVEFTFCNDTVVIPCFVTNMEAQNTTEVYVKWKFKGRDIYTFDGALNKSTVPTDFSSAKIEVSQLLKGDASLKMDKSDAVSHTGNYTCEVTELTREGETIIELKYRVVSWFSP
T2 sequence (Q08722 19-323): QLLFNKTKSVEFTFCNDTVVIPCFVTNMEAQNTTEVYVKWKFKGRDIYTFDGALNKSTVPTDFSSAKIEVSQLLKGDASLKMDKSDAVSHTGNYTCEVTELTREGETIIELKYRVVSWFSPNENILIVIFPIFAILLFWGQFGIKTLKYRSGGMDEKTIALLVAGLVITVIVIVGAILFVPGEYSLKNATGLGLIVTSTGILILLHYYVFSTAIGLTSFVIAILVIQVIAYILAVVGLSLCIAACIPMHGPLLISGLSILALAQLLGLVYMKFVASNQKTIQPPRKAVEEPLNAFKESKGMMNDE

B1: 对照抗体W3452-1.164.16-z11 (antibody, V domains shown)
VH: QVQLQESGPGLVKPSETLSLTCTVSGFSLTNYHVYWIRQPPGKGLEWIGVMWNHGDTSYNSPLKSRVTISVDTSKSQFSLKLSSVTAADTAVYYCARGGYVPDYWGQGTMVTVSS
VL: DIVMTQSPLSLPVTPGEPASISCRSSQSLVHSNAKTYLHWYLQKPGQSPQLLIYRVSNRFSGVPDRFSGSGSGTDFTLKISRVEAEDVGVYYCLQTTHFPYTFGQGTKLEIK
For the molecule B1, in the assay with 人CD47抗原蛋白, the Kd amounted to 0.0934 nM, the off-rate (koff) was determined as 3.84e-05 s⁻¹ and the kon was determined as 411000 M⁻¹ s⁻¹. For the same molecule, the IC50 with U937细胞表面的CD47 is 1.37 µg/mL.
